This note sets out measurements from patent US20150344570A1 (published 2015).

The target of assay [1] is T1, FcγRIIa H (human, UniProt P12318 34-217).
T1 construct: extracellular domain; also called FcgRIIa H; 2aH; not shown: His tag attached to the C terminus
T1 sequence (looked up): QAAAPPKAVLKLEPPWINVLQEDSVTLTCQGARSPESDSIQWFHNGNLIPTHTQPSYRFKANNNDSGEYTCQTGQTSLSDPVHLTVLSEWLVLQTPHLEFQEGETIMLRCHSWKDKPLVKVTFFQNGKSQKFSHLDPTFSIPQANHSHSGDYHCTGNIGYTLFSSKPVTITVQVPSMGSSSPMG
The experiment in a line: SPR; He/Con for FcγRIIa H divided by He/Con for FcγRIIb.

The target of a further assay is T2, FcγRIIb (human, UniProt P31994 43-217).
T2 construct: extracellular domain; also called FcgRIIb; 2b; not shown: His tag attached to the C terminus
T2 sequence (looked up): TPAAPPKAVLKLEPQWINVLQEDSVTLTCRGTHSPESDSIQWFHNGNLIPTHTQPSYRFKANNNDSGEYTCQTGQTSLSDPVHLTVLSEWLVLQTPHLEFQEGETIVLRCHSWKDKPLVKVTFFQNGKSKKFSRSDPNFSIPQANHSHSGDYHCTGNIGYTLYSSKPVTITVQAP
The experiment in a line: SPR (Biacore), antibody captured on antigen peptide chip, FcγR as analyte; relative binding activity. As for the experimental part: (§1) The heterodimerized antibodies He Abs in which one of the H chains was introduced with an alteration were assayed for their binding activities to each activating FcγR and inhibitory FcγR according to the method described in Example 4. […] The activating FcγRs in FIGS. 26, 27, 28, and 29 are FcγRIa, FcγRIIa (R), FcγRIIa (H), and FcγRIIIa, respectively.
(§2) Analysis of interaction between objective antibody and the FcγR was carried out using Biacore T100 (GE Healthcare). HBS-EP+ (GE Healthcare) was used as the running buffer, and the measurement temperature was set to 25° C. Chips produced by immobilizing the antigen peptide by the amine coupling method to a Series S Sencor Chip CM5 (GE Healthcare), or alternatively, chips produced by allowing preliminarily biotinylated antigen peptides to interact with and immobilize onto a Series S Sensor Chip SA (certified) (GE Healthcare) were used. Antibodies of interest were captured onto an antigen peptide-immobilized chip, and allowed to interact to each FcγR diluted with running buffer. To regenerate and repeatedly use the chip, the antibodies captured on the chip were washed off by reacting 10 mM glycine-HCl, pH 1.5.
In general terms: Surface plasmon resonance follows binding to a sensor surface in real time, without labels.

In assay [2] the target is T1, FcγRIIa H. The assay is described as above. As to the method: as §1, §2

B1: GpH7-A5/GpH7-B3 variant D265_13S/GpL16-k0 (antibody, human IgG1, kappa)
heavy 1: not shown
heavy 2: not shown
light: DIVMTQSPLSLPVTPGEPASISCQASESLVHSNRNTYLHWYLQKPGQSPQLLIYKVSNRFSGVPDRFSGSGSGTDFTLKISRVEAEDVGVYYCSQNTHVPPTFGQGTKVEIERTVAAPSVFIFPPSDEQLKSGTASVVCLLNNFYPREAKVQWKVDNALQSGNSQESVTEQDSKDSTYSLSSTLTLSKADYEKHKVYACEVTHQGLSSPVTKSFNRGEC
notes: Heterodimerized anti-glypican-3 IgG1; mutation in one H chain only; also called He Ab
As to B1, in the assay with FcγRIIa H [1], the “He_2aH/2b (IIaH/IIb)” value was 1.75 ratio. In the assay with FcγRIIb, the He/Con_2b is 11.3 % of GpH7-A5/GpH7-B3/GpL16-k0 (=100). For the same molecule, the He/Con_2aH in the assay with FcγRIIa H [2] was 19.8 % of GpH7-A5/GpH7-B3/GpL16-k0 (=100).

B2: GpH7-A5/GpH7-B3 variant D265_15Y/GpL16-k0 (antibody, human IgG1, kappa)
heavy 1: not shown
heavy 2: not shown
light: DIVMTQSPLSLPVTPGEPASISCQASESLVHSNRNTYLHWYLQKPGQSPQLLIYKVSNRFSGVPDRFSGSGSGTDFTLKISRVEAEDVGVYYCSQNTHVPPTFGQGTKVEIERTVAAPSVFIFPPSDEQLKSGTASVVCLLNNFYPREAKVQWKVDNALQSGNSQESVTEQDSKDSTYSLSSTLTLSKADYEKHKVYACEVTHQGLSSPVTKSFNRGEC
notes: as for B1
For B2, in the assay with FcγRIIa H [1], the “He_2aH/2b (IIaH/IIb)” value came to 6.07 ratio. Also, in the assay with FcγRIIb, the He/Con_2b was 0.6 % of GpH7-A5/GpH7-B3/GpL16-k0 (=100). Also, in the assay with FcγRIIa H [2], the He/Con_2aH is 3.7 % of GpH7-A5/GpH7-B3/GpL16-k0 (=100).

B3: GpH7-A5/GpH7-B3 variant E269_01G/GpL16-k0 (antibody, human IgG1, kappa)
heavy 1: not shown
heavy 2: not shown
light: DIVMTQSPLSLPVTPGEPASISCQASESLVHSNRNTYLHWYLQKPGQSPQLLIYKVSNRFSGVPDRFSGSGSGTDFTLKISRVEAEDVGVYYCSQNTHVPPTFGQGTKVEIERTVAAPSVFIFPPSDEQLKSGTASVVCLLNNFYPREAKVQWKVDNALQSGNSQESVTEQDSKDSTYSLSSTLTLSKADYEKHKVYACEVTHQGLSSPVTKSFNRGEC
notes: as for B1
For the molecule B3, the “He_2aH/2b (IIaH/IIb)” value with FcγRIIa H [1] came to 1.39 ratio. Further, the He/Con_2b in the assay with FcγRIIb is 51.5 % of GpH7-A5/GpH7-B3/GpL16-k0 (=100). The He/Con_2aH in the assay with FcγRIIa H [2] is 71.5 % of GpH7-A5/GpH7-B3/GpL16-k0 (=100).

B4: GpH7-A5/GpH7-B3 variant H268_04F/GpL16-k0 (antibody, human IgG1, kappa)
heavy 1: not shown
heavy 2: not shown
light: DIVMTQSPLSLPVTPGEPASISCQASESLVHSNRNTYLHWYLQKPGQSPQLLIYKVSNRFSGVPDRFSGSGSGTDFTLKISRVEAEDVGVYYCSQNTHVPPTFGQGTKVEIERTVAAPSVFIFPPSDEQLKSGTASVVCLLNNFYPREAKVQWKVDNALQSGNSQESVTEQDSKDSTYSLSSTLTLSKADYEKHKVYACEVTHQGLSSPVTKSFNRGEC
notes: as for B1
With B4, in the assay with FcγRIIa H [1], the “He_2aH/2b (IIaH/IIb)” value was 1.24 ratio. Further, in the assay with FcγRIIb, the He/Con_2b was 89.6 % of GpH7-A5/GpH7-B3/GpL16-k0 (=100). For the same molecule, the He/Con_2aH in the assay with FcγRIIa H [2] is 111 % of GpH7-A5/GpH7-B3/GpL16-k0 (=100).

B5: GpH7-A5/GpH7-B3 variant D265_19Q/GpL16-k0 (antibody, human IgG1, kappa)
heavy 1: not shown
heavy 2: not shown
light: DIVMTQSPLSLPVTPGEPASISCQASESLVHSNRNTYLHWYLQKPGQSPQLLIYKVSNRFSGVPDRFSGSGSGTDFTLKISRVEAEDVGVYYCSQNTHVPPTFGQGTKVEIERTVAAPSVFIFPPSDEQLKSGTASVVCLLNNFYPREAKVQWKVDNALQSGNSQESVTEQDSKDSTYSLSSTLTLSKADYEKHKVYACEVTHQGLSSPVTKSFNRGEC
notes: as for B1
Turning to B5, the “He_2aH/2b (IIaH/IIb)” value with FcγRIIa H [1] was determined as 1.43 ratio. Besides, the He/Con_2b in the assay with FcγRIIb was 33.4 % of GpH7-A5/GpH7-B3/GpL16-k0 (=100). Also, the He/Con_2aH with FcγRIIa H [2] is 47.7 % of GpH7-A5/GpH7-B3/GpL16-k0 (=100).

B6: GpH7-A5/GpH7-B3 variant G236_20W/GpL16-k0 (antibody, human IgG1, kappa)
heavy 1: not shown
heavy 2: not shown
light: DIVMTQSPLSLPVTPGEPASISCQASESLVHSNRNTYLHWYLQKPGQSPQLLIYKVSNRFSGVPDRFSGSGSGTDFTLKISRVEAEDVGVYYCSQNTHVPPTFGQGTKVEIERTVAAPSVFIFPPSDEQLKSGTASVVCLLNNFYPREAKVQWKVDNALQSGNSQESVTEQDSKDSTYSLSSTLTLSKADYEKHKVYACEVTHQGLSSPVTKSFNRGEC
notes: Heterodimerized anti-glypican-3 IgG1; mutation in one H chain only; also called He Ab; GpH7-A5/GpH7-B3-03-20W/GpL16-k0
For the molecule B6, in the assay with FcγRIIa H [1], the “He_2aH/2b (IIaH/IIb)” value turned out to be 2.52 ratio. In addition, the He/Con_2b in the assay with FcγRIIb was 58.2 % of GpH7-A5/GpH7-B3/GpL16-k0 (=100). In the assay with FcγRIIa H [2], the He/Con_2aH was 147 % of GpH7-A5/GpH7-B3/GpL16-k0 (=100).

B7: GpH7-A5/GpH7-B3 variant G236_19Q/GpL16-k0 (antibody, human IgG1, kappa)
heavy 1: not shown
heavy 2: not shown
light: DIVMTQSPLSLPVTPGEPASISCQASESLVHSNRNTYLHWYLQKPGQSPQLLIYKVSNRFSGVPDRFSGSGSGTDFTLKISRVEAEDVGVYYCSQNTHVPPTFGQGTKVEIERTVAAPSVFIFPPSDEQLKSGTASVVCLLNNFYPREAKVQWKVDNALQSGNSQESVTEQDSKDSTYSLSSTLTLSKADYEKHKVYACEVTHQGLSSPVTKSFNRGEC
notes: as for B1
As for B7, in the assay with FcγRIIa H [1], the “He_2aH/2b (IIaH/IIb)” value came out at 1.91 ratio. The He/Con_2b in the assay with FcγRIIb was 46.6 % of GpH7-A5/GpH7-B3/GpL16-k0 (=100). For the same molecule, in the assay with FcγRIIa H [2], the He/Con_2aH is 89.1 % of GpH7-A5/GpH7-B3/GpL16-k0 (=100).
